Laboratory results reported in patent US20130157953A1, “TREATMENT OF CARDIAC CONDITIONS” (Zealand Pharma A/S, priority 2010, published 2013).
Numbered stars: 1 amine (or outer) side, 2 acyl side, 3 side chain; on linkers, the order of the positions; unused ones are H or OH. Bridge positions count the residues as written; N and C are the ends. Square brackets hold non-standard residues; d marks the D form. Side chains are listed from the residue outwards. * marks the point of attachment. γGlu = O=C(O)[C@H](CCC(=O)[*:2])N[*:1]; Palmitoyl = CCCCCCCCCCCCCCCC(=O)*; Aib = CC(C)(N)C(=O)O

Experiments:
[1] = biological target: human glucagon receptor (Glucagon-R) (human, UniProt P47871 26-477); experiment: cell-based or functional assay
human glucagon receptor (Glucagon-R), sequence (P47871 26-477): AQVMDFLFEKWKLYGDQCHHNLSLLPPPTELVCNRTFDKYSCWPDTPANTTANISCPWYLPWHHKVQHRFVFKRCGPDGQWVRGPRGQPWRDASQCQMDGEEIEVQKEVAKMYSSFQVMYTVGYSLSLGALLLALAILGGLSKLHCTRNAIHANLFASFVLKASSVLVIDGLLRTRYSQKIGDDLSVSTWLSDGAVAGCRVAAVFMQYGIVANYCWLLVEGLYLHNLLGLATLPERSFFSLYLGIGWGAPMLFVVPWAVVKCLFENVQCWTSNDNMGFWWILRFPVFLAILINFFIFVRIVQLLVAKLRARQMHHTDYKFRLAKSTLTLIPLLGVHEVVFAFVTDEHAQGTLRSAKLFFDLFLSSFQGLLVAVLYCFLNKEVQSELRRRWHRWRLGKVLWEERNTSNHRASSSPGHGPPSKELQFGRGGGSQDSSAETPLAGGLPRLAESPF

[2] = biological target: human glucagon-like peptide 1 receptor (GLP-1R) (human, UniProt P43220 24-463); experiment: cell-based or functional assay

Binder	EC50 (nM) GuR; cAMP content, HEK293 cells expressing the human glucagon receptor [1] [nM]	EC50 (nM) GLP-1R; cAMP content, HEK293 cells expressing human GLP-1R [2] [nM]
H-HSQGTFTSDYSKYLDSRHAQDFVWLMNT-NH2 [Compound 244]	0.05	0.5
H-HSQGTFTSDYSKYLDSRSAQDFVWLMNT-NH2 [Compound 245]	0.05	
H-HSQGTFTSDYSKYLDSRAAQDFVWLMNT-NH2 [Compound 246]	0.05	0.3
H-HSQGTFTSDYSKYLDSRYAQDFVWLMNT-NH2 [Compound 247]		0.3
H-HSQGTFTSDYSKYLDSRRAQDFVWLESA-NH2 [Compound 248]		0.5
H-HSQGTFTSDYSKYLDSRRAQDFVWLKRA-NH2 [Compound 250]		0.3
H-HSQGTFTSDYSKYLDSRRAQDFVWLERA-NH2 [Compound 251]		0.2
H-HSQGTFTSDYSRYLDSRRAKDFVWLLNT-NH2 [Compound 252]	0.3	0.5
H-HSQGTFTSDYSRYLDSRRAQDFVWLLNT-NH2 [Compound 253]		0.2
H-HSQGTFTSDYSRYLDSRRAQDFVWLLNK-NH2 [Compound 254]	0.2	0.2
H-HSQGTFTSDYSKYLDRARADDFVAWLKST-NH2 [Compound 12]	0.5	0.23
H-HSQGTFTSDYSKYLDSALAQDFVWLLNT-NH2 [Compound 255]		0.24
H-HSQGTFTSDYSKYLDKRRAEDFVWLMNT-NH2 [Compound 256]	0.07	0.2
H-HSQGTFTSDYSKYLDKRRAEDFVWLMNT-NH2 (lactam 16-20; SMILES CSCC[C@H](NC(=O)[C@H](CC(C)C)NC(=O)[C@H](Cc1c[nH]c2ccccc12)NC(=O)[C@@H](NC(=O)[C@H](Cc1ccccc1)NC(=O)[C@H](CC(=O)O)NC(=O)[C@@H]1CCC(=O)NCCCC[C@H](NC(=O)[C@H](CC(=O)O)NC(=O)[C@H](CC(C)C)NC(=O)[C@H](Cc2ccc(O)cc2)NC(=O)[C@H](CCCCN)NC(=O)[C@H](CO)NC(=O)[C@H](Cc2ccc(O)cc2)NC(=O)[C@H](CC(=O)O)NC(=O)[C@H](CO)NC(=O)[C@@H](NC(=O)[C@H](Cc2ccccc2)NC(=O)[C@@H](NC(=O)CNC(=O)[C@H](CCC(N)=O)NC(=O)[C@H](CO)NC(=O)[C@@H](N)Cc2c[nH]cn2)[C@@H](C)O)[C@@H](C)O)C(=O)N[C@@H](CCCNC(=N)N)C(=O)N[C@@H](CCCNC(=N)N)C(=O)N[C@@H](C)C(=O)N1)C(C)C)C(=O)N[C@@H](CC(N)=O)C(=O)N[C@H](C(N)=O)[C@@H](C)O) [Compound 257]	0.09	
H-HSQGTFTSDYSRYLDERRAQDFVWLMNT-NH2 [Compound 258]	0.06	0.07
H-HSQGTFTSDYSKYLDERRAQDFVWLMNT-NH2 (lactam 12-16; SMILES CSCC[C@H](NC(=O)[C@H](CC(C)C)NC(=O)[C@H](Cc1c[nH]c2ccccc12)NC(=O)[C@@H](NC(=O)[C@H](Cc1ccccc1)NC(=O)[C@H](CC(=O)O)NC(=O)[C@H](CCC(N)=O)NC(=O)[C@H](C)NC(=O)[C@H](CCCNC(=N)N)NC(=O)[C@H](CCCNC(=N)N)NC(=O)[C@@H]1CCC(=O)NCCCC[C@H](NC(=O)[C@H](CO)NC(=O)[C@H](Cc2ccc(O)cc2)NC(=O)[C@H](CC(=O)O)NC(=O)[C@H](CO)NC(=O)[C@@H](NC(=O)[C@H](Cc2ccccc2)NC(=O)[C@@H](NC(=O)CNC(=O)[C@H](CCC(N)=O)NC(=O)[C@H](CO)NC(=O)[C@@H](N)Cc2c[nH]cn2)[C@@H](C)O)[C@@H](C)O)C(=O)N[C@@H](Cc2ccc(O)cc2)C(=O)N[C@@H](CC(C)C)C(=O)N[C@@H](CC(=O)O)C(=O)N1)C(C)C)C(=O)N[C@@H](CC(N)=O)C(=O)N[C@H](C(N)=O)[C@@H](C)O) [Compound 259]	0.03	0.04
H-HSQGTFTSDYSKYLDSKAAQDFVWLMNT-NH2 [Compound 260]	0.07	0.02
H-HSQGTFTSDYSKYLDSKAAHDFVEWLLRA-NH2 [Compound 48]	0.06	0.06
H-HSQGTFTSDYSKYLDSKAAK([γGlu-Palmitoyl])DFVEWLLRA-NH2 (SMILES CCCCCCCCCCCCCCCC(=O)N[C@@H](CCC(=O)NCCCC[C@H](NC(=O)[C@H](C)NC(=O)[C@H](C)NC(=O)[C@H](CCCCN)NC(=O)[C@H](CO)NC(=O)[C@H](CC(=O)O)NC(=O)[C@H](CC(C)C)NC(=O)[C@H](Cc1ccc(O)cc1)NC(=O)[C@H](CCCCN)NC(=O)[C@H](CO)NC(=O)[C@H](Cc1ccc(O)cc1)NC(=O)[C@H](CC(=O)O)NC(=O)[C@H](CO)NC(=O)[C@@H](NC(=O)[C@H](Cc1ccccc1)NC(=O)[C@@H](NC(=O)CNC(=O)[C@H](CCC(N)=O)NC(=O)[C@H](CO)NC(=O)[C@@H](N)Cc1c[nH]cn1)[C@@H](C)O)[C@@H](C)O)C(=O)N[C@@H](CC(=O)O)C(=O)N[C@@H](Cc1ccccc1)C(=O)N[C@H](C(=O)N[C@@H](CCC(=O)O)C(=O)N[C@@H](Cc1c[nH]c2ccccc12)C(=O)N[C@@H](CC(C)C)C(=O)N[C@@H](CC(C)C)C(=O)N[C@@H](CCCNC(=N)N)C(=O)N[C@@H](C)C(N)=O)C(C)C)C(=O)O) [Compound 204]	0.04	
H-HSQGTFTSDYSKYLDSKAAHDFVEWLLK([γGlu-Palmitoyl])A-NH2 (SMILES CCCCCCCCCCCCCCCC(=O)N[C@@H](CCC(=O)NCCCC[C@H](NC(=O)[C@H](CC(C)C)NC(=O)[C@H](CC(C)C)NC(=O)[C@H](Cc1c[nH]c2ccccc12)NC(=O)[C@H](CCC(=O)O)NC(=O)[C@@H](NC(=O)[C@H](Cc1ccccc1)NC(=O)[C@H](CC(=O)O)NC(=O)[C@H](Cc1c[nH]cn1)NC(=O)[C@H](C)NC(=O)[C@H](C)NC(=O)[C@H](CCCCN)NC(=O)[C@H](CO)NC(=O)[C@H](CC(=O)O)NC(=O)[C@H](CC(C)C)NC(=O)[C@H](Cc1ccc(O)cc1)NC(=O)[C@H](CCCCN)NC(=O)[C@H](CO)NC(=O)[C@H](Cc1ccc(O)cc1)NC(=O)[C@H](CC(=O)O)NC(=O)[C@H](CO)NC(=O)[C@@H](NC(=O)[C@H](Cc1ccccc1)NC(=O)[C@@H](NC(=O)CNC(=O)[C@H](CCC(N)=O)NC(=O)[C@H](CO)NC(=O)[C@@H](N)Cc1c[nH]cn1)[C@@H](C)O)[C@@H](C)O)C(C)C)C(=O)N[C@@H](C)C(N)=O)C(=O)O) [Compound 205]		0.09
H-H[Aib]QGTFTSDYSKYLDEK([γGlu-Palmitoyl])RAKDFIEWLLSA-NH2 (SMILES CCCCCCCCCCCCCCCC(=O)N[C@@H](CCC(=O)NCCCC[C@H](NC(=O)[C@H](CCC(=O)O)NC(=O)[C@H](CC(=O)O)NC(=O)[C@H](CC(C)C)NC(=O)[C@H](Cc1ccc(O)cc1)NC(=O)[C@H](CCCCN)NC(=O)[C@H](CO)NC(=O)[C@H](Cc1ccc(O)cc1)NC(=O)[C@H](CC(=O)O)NC(=O)[C@H](CO)NC(=O)[C@@H](NC(=O)[C@H](Cc1ccccc1)NC(=O)[C@@H](NC(=O)CNC(=O)[C@H](CCC(N)=O)NC(=O)C(C)(C)NC(=O)[C@@H](N)Cc1c[nH]cn1)[C@@H](C)O)[C@@H](C)O)C(=O)N[C@@H](CCCNC(=N)N)C(=O)N[C@@H](C)C(=O)N[C@@H](CCCCN)C(=O)N[C@@H](CC(=O)O)C(=O)N[C@@H](Cc1ccccc1)C(=O)N[C@H](C(=O)N[C@@H](CCC(=O)O)C(=O)N[C@@H](Cc1c[nH]c2ccccc12)C(=O)N[C@@H](CC(C)C)C(=O)N[C@@H](CC(C)C)C(=O)N[C@@H](CO)C(=O)N[C@@H](C)C(N)=O)[C@@H](C)CC)C(=O)O) [Compound 263]	0.16	
H-HSQGTFTSDYSKYLDSERAQDFVWLMNT-NH2 [Compound 243]	0.06	
H-H[Aib]QGTFTSDYSKYLDSK([3‑aminopropanoyl-Palmitoyl])AAHDFVEWLLSA-NH2 [Compound 215]	1.87	
